Residue numbers refer to the chain shown, from its start. Ends that are not written are not given here.
How the values were obtained:
[1] = molecular target: T1, Dvl2 full-length protein (human, UniProt O14641 1-736); experiment: pull-down
T1 sequence (looked up): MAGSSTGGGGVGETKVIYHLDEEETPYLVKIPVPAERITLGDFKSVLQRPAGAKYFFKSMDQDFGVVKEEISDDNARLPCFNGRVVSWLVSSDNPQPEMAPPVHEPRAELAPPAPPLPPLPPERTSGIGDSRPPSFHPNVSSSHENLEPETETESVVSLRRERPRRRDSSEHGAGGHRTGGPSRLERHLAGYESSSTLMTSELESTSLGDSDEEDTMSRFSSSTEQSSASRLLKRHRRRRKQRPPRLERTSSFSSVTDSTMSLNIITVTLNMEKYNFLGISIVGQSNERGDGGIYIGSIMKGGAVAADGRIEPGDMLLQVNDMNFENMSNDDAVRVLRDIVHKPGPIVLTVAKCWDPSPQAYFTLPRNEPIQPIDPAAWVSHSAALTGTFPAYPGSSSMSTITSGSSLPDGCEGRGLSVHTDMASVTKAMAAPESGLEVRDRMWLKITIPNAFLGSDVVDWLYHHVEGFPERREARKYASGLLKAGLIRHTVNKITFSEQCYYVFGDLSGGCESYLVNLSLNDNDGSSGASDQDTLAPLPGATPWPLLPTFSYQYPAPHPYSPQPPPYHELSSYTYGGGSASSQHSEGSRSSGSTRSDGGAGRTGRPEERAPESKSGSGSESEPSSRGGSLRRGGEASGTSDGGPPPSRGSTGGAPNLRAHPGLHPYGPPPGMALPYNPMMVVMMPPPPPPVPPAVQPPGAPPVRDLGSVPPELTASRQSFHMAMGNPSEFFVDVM

[2] = molecular target: T2, Dvl2 FL F277A/M300A (human, UniProt O14641 1-736, F277A | M300A); experiment: pull-down
T2 sequence (looked up): T1 sequence (looked up) with F277A, M300A

- binding result [1]: binds
- binding result [2]: binds
Binder: {GST}-GKTLQSWRRFYHRLSHSSKGETAV [GST-Fz7 fusion peptide (GST-GKTLQSWRRFYHRLSHSSKGETAV)]

Source: PMC4100210 (Nature communications, 2014)
